The values below come from the supplement of paper PMC5998384.

The test system of data set [1] is HeLa Kyoto. The experiment in a line: thermal stability score vs G1/S (z-score of summed log2 fold changes over temperatures); higher = more thermally stable than in G1/S.
For data set [2], the system named is HeLa Kyoto. Description: melting temperature (median over replicates), in situ; higher = more thermally stable.
Data set [3] has as its system HeLa Kyoto. The experiment in a line: solubility in G1/S (NP-40 vs SDS abundance) (log2 ratio); higher = more soluble. The conditions noted are these: cell cycle stage: G1/S.
The test system of data set [4] is HeLa Kyoto. The experiment in a line: solubility change mitosis vs G1/S (difference of NP-40 vs SDS log2 ratios) (log2 ratio difference); higher = more soluble in mitosis.
[5] abbreviates: cell cycle stage: early G1 (4.5 h after nocodazole release).
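Throughout, for melting temperature (median over replicates), in situ: HeLa Kyoto cells synchronized by double thymidine or nocodazole block, proteins quantified by TMT10plex mass spectrometry, three independent biological replicates.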
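Throughout, for solubility change mitosis vs G1/S (difference of NP-40 vs SDS log2 ratios): synchronized HeLa Kyoto cells (double thymidine block for G1/S, nocodazole release for mitosis), protein amounts in NP-40 versus SDS lysates quantified by mass spectrometry, three biological replicates.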
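Throughout, for solubility in G1/S (NP-40 vs SDS abundance): HeLa Kyoto cells arrested at G1/S by double thymidine block, proteins quantified by TMT10plex mass spectrometry in mild NP-40 versus SDS extracts, three biological replicates.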
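Throughout, for thermal stability score vs G1/S (z-score of summed log2 fold changes over temperatures): synchronized HeLa Kyoto cells, proteins quantified by TMT10plex mass spectrometry, three biological replicates, mitosis taken 0.5 h after nocodazole release, G1/S directly after double thymidine block.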

Turning to “MAENGDNEKMAALEAKICHQIEYYFGDFNLPRDKFLKEQIKLDEGWVPLEIMIKFNRLNRLTTDFNVIVEALSKSKAELMEISEDKTKIRRSPSKPLPEVTDEYKNDVKNRSVYIKGFPTDATLDDIKEWLEDKGQVLNIQMRRTLHKAFKGSIFVVFDSIESAKKFVETPGQKYKETDLLILFKDDYFAKKNEERKQNKVEAKLRAKQEQEAKQKLEEDAEMKSLEEKIGCLLKFSGDLDDQTCREDLHILFSNHGEIKWIDFVRGAKEGIILFKEKAKEALGKAKDANNGNLQLRNKEVTWEVLEGEVEKEALKKIIEDQQESLNKWKSKGRRFKGKGKGNKAAQPGSGKGKVQFQGKKTKFASDDEHDEHDENGATGPVKRAREETDKEEPASKQQKTENGAGDQ [SSB]”, the thermal stability score came to 2.85 with HeLa Kyoto [1] (setting [5]) and 0.442 in the data set on HeLa Kyoto [1] (cell cycle stage: mitosis). Moreover, the figures for the melting temperature with HeLa Kyoto [2] (cell cycle stage: G1/S) and in the data set on HeLa Kyoto [2] (cell cycle stage: mitosis) were 49.3 °C and 50.3 °C, respectively. Moreover, the “solubility in G1/S (log2)” value in the data set on HeLa Kyoto [3] amounted to 0.66. In the data set with HeLa Kyoto [4], the “solubility change mitosis (log2)” value is -0.0733.
With “MARGLGAPHWVAVGLLTWATLGLLVAGLGGHDDLHDDLQEDFHGHSHRHSHEDFHHGHSHAHGHGHTHESIWHGHTHDHDHGHSHEDLHHGHSHGYSHESLYHRGHGHDHEHSHGGYGESGAPGIKQDLDAVTLWAYALGATVLISAAPFFVLFLIPVESNSPRHRSLLQILLSFASGGLLGDAFLHLIPHALEPHSHHTLEQPGHGHSHSGQGPILSVGLWVLSGIVAFLVVEKFVRHVKGGHGHSHGHGHAHSHTRGSHGHGRQERSTKEKQSSEEEEKETRGVQKRRGGSTVPKDGPVRPQNAEEEKRGLDLRVSGYLNLAADLAHNFTDGLAIGASFRGGRGLGILTTMTVLLHEVPHEVGDFAILVQSGCSKKQAMRLQLLTAVGALAGTACALLTEGGAVGSEIAGGAGPGWVLPFTAGGFIYVATVSVLPELLREASPLQSLLEVLGLLGGVIMMVLIAHLE [SLC39A7]”, the results for the thermal stability score with HeLa Kyoto [1] (setting [5]) and with HeLa Kyoto [1] (cell cycle stage: mitosis) were -0.93 and -2.25, respectively. Besides, the melting temperature worked out at 59.2 °C with HeLa Kyoto [2] (cell cycle stage: G1/S) and 57.1 °C with HeLa Kyoto [2] (cell cycle stage: mitosis). The “solubility in G1/S (log2)” value in the data set with HeLa Kyoto [3] was -0.392. Further, the “solubility change mitosis (log2)” value with HeLa Kyoto [4] was -0.00492.
With “MAERKPNGGSGGASTSSSGTNLLFSSSATEFSFNVPFIPVTQASASPASLLLPGEDSTDVGEEDSFLGQTSIHTSAPQTFSYFSQVSSSSDPFGNIGQSPLTTAATSVGQSGFPKPLTALPFTTGSQDVSNAFSPSISKAQPGAPPSSLMGINSYLPSQPSSLPPSYFGNQPQGIPQPGYNPYRHTPGSSRANPYIAPPQLQQCQTPGPPAHPPPSGPPVQMYQMPPGSLPPVPSSVQSPAQQQVPARPGAPSVQVPSPFLLQNQYEPVQPHWFYCKEVEYKQLWMPFSVFDSLNLEEIYNSVQPDPESVVLGTDGGRYDVYLYDRIRKAAYWEEEPAEVRRCTWFYKGDTDSRFIPYTEEFSEKLEAEYKKAVTTNQWHRRLEFPSGETIVMHNPKVIVQFQPSSVPDEWGTTQDGQTRPRVVKRGIDDNLDEIPDGEMPQVDHLVFVVHGIGPVCDLRFRSIIECVDDFRVVSLKLLRTHFKKSLDDGKVSRVEFLPVHWHSSLGGDATGVDRNIKKITLPSIGRFRHFTNETLLDILFYNSPTYCQTIVEKVGMEINHLHALFMSRNPDFKGGVSVAGHSLGSLILFDILSNQKDLNLSKCPGPLAVANGVVKQLHFQEKQMPEEPKLTLDESYDLVVENKEVLTLQETLEALSLSEYFSTFEKEKIDMESLLMCTVDDLKEMGIPLGPRKKIANFVEHKAAKLKKAASEKKAVAATSTKGQEQSAQKTKDMASLPSESNEPKRKLPVGACVSSVCVNYESFEVGAGQVSVAYNSLDFEPEIFFALGSPIAMFLTIRGVDRIDENYSLPTCKGFFNIYHPLDPVAYRLEPMIVPDLDLKAVLIPHHKGRKRLHLELKESLSRMGSDLKQGFISSLKSAWQTLNEFARAHTSSTQLQEELEKVANQIKEEEEKQVVEAEKVVESPDFSKDEDYLGKVGMLNGGRRIDYVLQEKPIESFNEYLFALQSHLCYWESEDTALLLLKEIYRTMNISPEQPQH [SEC23IP]”, the thermal stability score in the data set on HeLa Kyoto [1] (setting [5]) is -1.73; in the data set with HeLa Kyoto [1] (cell cycle stage: mitosis), -1.12. Further, the melting temperature in the data set on HeLa Kyoto [2] (cell cycle stage: G1/S) worked out at 50.5 °C; in the data set with HeLa Kyoto [2] (cell cycle stage: mitosis), 50.3 °C. Besides, in the data set with HeLa Kyoto [3], the “solubility in G1/S (log2)” value stood at 0.171. In addition, in the data set on HeLa Kyoto [4], the “solubility change mitosis (log2)” value was -0.197.
For “MGSQVSVESGALHVVIVGGGFGGIAAASQLQALNVPFMLVDMKDSFHHNVAALRASVETGFAKKTFISYSVTFKDNFRQGLVVGIDLKNQMVLLQGGEALPFSHLILATGSTGPFPGKFNEVSSQQAAIQAYEDMVRQVQRSRFIVVVGGGSAGVEMAAEIKTEYPEKEVTLIHSQVALADKELLPSVRQEVKEILLRKGVQLLLSERVSNLEELPLNEYREYIKVQTDKGTEVATNLVILCTGIKINSSAYRKAFESRLASSGALRVNEHLQVEGHSNVYAIGDCADVRTPKMAYLAGLHANIAVANIVNSVKQRPLQAYKPGALTFLLSMGRNDGVGQISGFYVGRLMVRLTKSRDLFVSTSWKTMRQSPP [AIFM2]”, the thermal stability score in the data set with HeLa Kyoto [1] (setting [5]) was -1.05; with HeLa Kyoto [1] (cell cycle stage: mitosis), -2.26. The melting temperature with HeLa Kyoto [2] (cell cycle stage: G1/S) is 55.3 °C; in the data set with HeLa Kyoto [2] (cell cycle stage: mitosis), 53.7 °C. Besides, in the data set on HeLa Kyoto [3], the “solubility in G1/S (log2)” value is 0.112. In addition, the “solubility change mitosis (log2)” value with HeLa Kyoto [4] is -0.209.
For the sequence “MVEADRPGKLFIGGLNTETNEKALETVFGKYGRIVEVLLIKDRETNKSRGFAFVTFESPADAKDAARDMNGKSLDGKAIKVEQATKPSFERGRHGPPPPPRSRGPPRGFGAGRGGSGGTRGPPSRGGHMDDGGYSMNFNMSSSRGPLPVKRGPPPRSGGPSPKRSAPSGLVRSSSGMGGRAPLSRGRDSYGGPPRREPLPSRRDVYLSPRDDGYSTKDSYSSRDYPSSRDTRDYAPPPRDYTYRDYGHSSSRDDYPSRGYGDRDGYGRDRDYSDHPSGGSYRDSYESYGNSRSAPLTRGPPPSYGGSSRYDDYSSSRDGYGGSRDSYSSSRSDLYSSCDRVGRQERGLPPSVERGYPSSRDSYSSSSRGAPRGAGPGGSRSDRGGGRSRY [RBMXL1]”, the thermal stability score in the data set on HeLa Kyoto [1] (setting [5]) is -0.08; in the data set on HeLa Kyoto [1] (cell cycle stage: mitosis), 0.0725. Moreover, the melting temperature in the data set on HeLa Kyoto [2] (cell cycle stage: G1/S) was 46.5 °C; with HeLa Kyoto [2] (cell cycle stage: mitosis) it was 51 °C. In addition, the “solubility in G1/S (log2)” value with HeLa Kyoto [3] was -0.598. Also, in the data set on HeLa Kyoto [4], the “solubility change mitosis (log2)” value turned out to be 0.637.
With “MLRRGSQALRRFSTGRVYFKNKLKLALIGQSLFGQEVYSHLRKEGHRVVGVFTVPDKDGKADPLALAAEKDGTPVFKLPKWRVKGKTIKEVAEAYRSVGAELNVLPFCTQFIPMDIIDSPKHGSIIYHPSILPRHRGASAINWTLIMGDKKAGFSVFWADDGLDTGPILLQRSCDVEPNDTVDALYNRFLFPEGIKAMVEAVQLIADGKAPRIPQPEEGATYEGIQKKENAEISWDQSAEVLHNWIRGHDKVPGAWTEINGQMVTFYGSTLLNSSVPPGEPLEIKGAKKPGLVTKNGLVLFGNDGKALTVRNLQFEDGKMIPASQYFSTGETSVVELTAEEVKVAETIKVIWAGILSNVPIIEDSTDFFKSGASSMDVARLVEEIRQKCGGLQLQNEDVYMATKFEGFIQKVVRKLRGEDQEVELVVDYISKEVNEIMVKMPYQCFINGQFTDADDGKTYDTINPTDGSTICKVSYASLADVDKAVAAAKDAFENGEWGRMNARERGRLMYRLADLLEENQEELATIEALDSGAVYTLALKTHIGMSVQTFRYFAGWCDKIQGSTIPINQARPNRNLTFTKKEPLGVCAIIIPWNYPLMMLAWKSAACLAAGNTLVLKPAQVTPLTALKFAELSVKAGFPKGVINIIPGSGGIAGQRLSEHPDIRKLGFTGSTPIGKQIMKSCAVSNLKKVSLELGGKSPLIIFNDCELDKAVRMGMGAVFFNKGENCIAAGRLFVEESIHDEFVTRVVEEIKKMKIGDPLDRSTDHGPQNHKAHLEKLLQYCETGVKEGATLVYGGRQVQRPGFFMEPTVFTDVEDYMYLAKEESFGPIMVISKFQNGDIDGVLQRANSTEYGLASGVFTRDINKAMYVSEKLEAGTVFINTYNKTDVAAPFGGVKQSGFGKDLGEEALNEYLKTKTVTLEY [ALDH1L2]”, the thermal stability score in the data set on HeLa Kyoto [1] (setting [5]) was -0.0085; in the data set with HeLa Kyoto [1] (cell cycle stage: mitosis), -0.149. In addition, the figures for the melting temperature with HeLa Kyoto [2] (cell cycle stage: G1/S) and with HeLa Kyoto [2] (cell cycle stage: mitosis) were 51.6 °C and 51.2 °C, respectively. Also, in the data set with HeLa Kyoto [3], the “solubility in G1/S (log2)” value is 0.0306. Besides, the “solubility change mitosis (log2)” value with HeLa Kyoto [4] is -0.105.
